Data reported in article PMC9585510.
Blank lines part the entries; values can stand above or below the molecule they belong to.

Tests used:
[1] = target: Marchantia polymorpha plant cysteine oxidase (MpPCO), with N-terminal His6-tag (Marchantia polymorpha)
[2] = target: MpPCOc, Marchantia polymorpha plant cysteine oxidase with the N-terminal His6-tag removed (Marchantia polymorpha)

KM for the peptide substrate in steady-state kinetics of Nt-Cys oxidation (LC-MS; atmospheric O2, 25 °C, 50 mM bis-tris propane, 50 mM NaCl, 1 mM TCEP, pH 8.0; fitted with substrate inhibition) [1]: 11 μM
Molecule: AtRAP2(2-15), 14-mer peptide representing the N-terminus of the A. thaliana ERF-VIIs RAP2.2 and RAP2.12

KM for the peptide substrate in steady-state kinetics of Nt-Cys oxidation (LC-MS; atmospheric O2, 25 °C, 50 mM bis-tris propane, 50 mM NaCl, 1 mM TCEP, pH 8.0) [2]: 509 μM
B1: MpERF-like(2-15), 14-mer peptide representing the Cys-initiating N-terminus of the M. polymorpha protein MpERF-like (peptide)
peptide: CRMNKRLGKGETGL
